Measured values from paper PMC8110956, “An infection-induced RhoB-Beclin 1-Hsp90 complex enhances clearance of uropathogenic Escherichia coli” (Nature Communications, 2021).

Molecular target: T1, GST-fused Beclin 1 (human, UniProt Q14457 1-450)
T1 construct: Beclin 1, in pGEX4T-3; also called GST-Beclin 1; source: E. coli BL21 (DE3), purified (Glutathione Sepharose 4B)
Experiment: pull-down; about 1 μg of each purified GST-fused protein combined in 0.8% BSA in PBS at 4 °C overnight; precipitated with anti-RhoB or anti-Beclin 1 antibody (IgG as control) plus protein G Sepharose; western blot
Details: both partners purified

T1 sequence (Q14457 whole entry, the tested form may be a part): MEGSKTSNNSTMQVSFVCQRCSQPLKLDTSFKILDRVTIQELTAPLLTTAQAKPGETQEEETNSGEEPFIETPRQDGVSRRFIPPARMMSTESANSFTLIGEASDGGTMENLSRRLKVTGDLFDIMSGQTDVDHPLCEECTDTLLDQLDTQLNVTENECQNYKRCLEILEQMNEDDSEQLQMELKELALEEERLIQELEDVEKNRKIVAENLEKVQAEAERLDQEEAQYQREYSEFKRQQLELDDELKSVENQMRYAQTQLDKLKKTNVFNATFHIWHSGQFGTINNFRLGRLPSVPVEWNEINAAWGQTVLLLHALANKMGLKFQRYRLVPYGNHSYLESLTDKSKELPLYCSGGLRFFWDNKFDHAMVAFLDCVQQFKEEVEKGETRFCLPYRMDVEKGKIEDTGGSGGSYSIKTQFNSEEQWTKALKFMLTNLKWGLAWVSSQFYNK

- binding result: binds
B1: GST-RhoB (118–196) (domain or fragment, human, UniProt P62745 118-196, looked up)
chain: KKDLRSDEHVRTELARMKQEPVRTDDGRAMAVRIQAYDYLECSAKTKEGVREVFETATRAALQKRYGSQNGCINCCKVL
notes: source: E. coli BL21 (DE3), purified (Glutathione Sepharose 4B)
